A short description of this data set: protein stability index of a GFP-peptide fusion (GPS, HEK-293T) (PSI 1-6); higher = more stable. Particulars: c terminus: a fixed tail appended.

Our source for the protein stability index values is the supplement of paper PMC10567573.

± gives the standard deviation.
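Further: 24-mer peptide tiles fused after GFP, lentivirally expressed, FACS-sorted into six equal bins by GFP/DsRed ratio, decoded by Illumina sequencing, PSI is the read-weighted mean bin number.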

As to SRREREPEPPAAVDFLEPDSGTCP [FCHO1], the protein stability index by setting is: (treatment: DMSO) 5.43 ± 0.22; (treatment: MLN4924 1 uM, 8 h) 5.44 ± 0.33.

As to LWSDPDDRGGWGISPRGAGYTFGQ [PPP2CA], the protein stability index was 2.5 ± 0.31 (treatment: DMSO) and 2.72 ± 0.26 (treatment: MLN4924 1 uM, 8 h).

For the sequence RLMDVCATSRTDREIKVTLVFEHV [CDK4], the protein stability index came to 2.65 ± 0.57 (treatment: DMSO) and 2.5 ± 0.15 (treatment: MLN4924 1 uM, 8 h).

As for RWTSYRFSRVCRLHRGQLSLFCLE [TRIM35], the protein stability index reads like this: (treatment: DMSO) 2.43 ± 0.54; (treatment: MLN4924 1 uM, 8 h) 2.23 ± 0.42.

In the case of GPDTQDLEGQSPPQSLPSTPKAAW [PBXIP1], the protein stability index reads like this: (treatment: DMSO) 5.2 ± 0.28; (treatment: MLN4924 1 uM, 8 h) 5.07 ± 0.18.

For KYSFLQFDPAPRRGEPHVTRRTPD [PPP2CA], the protein stability index by setting is: (treatment: DMSO) 4.04 ± 0.27; (treatment: MLN4924 1 uM, 8 h) 3.85 ± 0.19.

On to MGGPFSYVYFFCTVPEILVHNIVI [TMEM106C], for which the protein stability index is, setting by setting: (treatment: DMSO) 3.23 ± 0.51; (treatment: MLN4924 1 uM, 8 h) 3.19 ± 0.82.

WSIFYFFKSFQYPLPWSECPVVRN [SLC6A17]: the protein stability index stood at 2.41 ± 0.17 (treatment: DMSO) and 2.59 ± 0.47 (treatment: MLN4924 1 uM, 8 h).

With EGYRVSQALRENTYPFLAMIMLKD [FAF2], the protein stability index was 2.36 ± 0.2 (treatment: DMSO) and 2.44 ± 0.29 (treatment: MLN4924 1 uM, 8 h).

For the sequence MEAQAQGLLETEPLQGTDEDAVAS [TPD52L1], the protein stability index runs as follows: (treatment: DMSO) 5.56 ± 0.19; (treatment: MLN4924 1 uM, 8 h) 5.56 ± 0.16.

Regarding EYGTCMCLVKGIFYHCSNDDEGDS [SPRY1], the protein stability index is, setting by setting: (treatment: DMSO) 3.14 ± 0.21; (treatment: MLN4924 1 uM, 8 h) 3.27 ± 0.23.

Turning to NGITQGDKLRALKSQRQPRTSPSC [CDC14A], the protein stability index worked out at 4.16 ± 0.19 (treatment: DMSO) and 4.14 ± 0.071 (treatment: MLN4924 1 uM, 8 h).

Consider FGGGSTRGGSLLAGGGGFGGGSLS [KRT15], for which the protein stability index reads like this: (treatment: DMSO) 2.54 ± 0.43; (treatment: MLN4924 1 uM, 8 h) 3.11 ± 0.52.

As to ELDDTLKYSFLQFDPAPRRGEPHV [PPP2CA], the protein stability index runs as follows: (treatment: DMSO) 3.2 ± 0.32; (treatment: MLN4924 1 uM, 8 h) 3.41 ± 0.31.

Take VDYPLHDLVLHTNYTATVRGLRGP [TNXB]: the protein stability index worked out at 2.71 ± 0.19 (treatment: DMSO) and 2.81 ± 0.24 (treatment: MLN4924 1 uM, 8 h).

With RPNDDSLAFLDKIKSVKESLQESV [IQUB], the protein stability index (treatment: DMSO) was 3.64 ± 0.034 and the protein stability index (treatment: MLN4924 1 uM, 8 h) is 3.34 ± 0.32.

In the case of REEDFPSLREYNDFLEEVEEIVFN [MNAT1], the protein stability index is, setting by setting: (treatment: DMSO) 3.82 ± 0.16; (treatment: MLN4924 1 uM, 8 h) 3.73 ± 0.28.

On to LSPAQKDLYRDVMLENYSNLVSVG [ZNF649], for which the protein stability index by setting is: (treatment: DMSO) 2.37 ± 0.74; (treatment: MLN4924 1 uM, 8 h) 3.02 ± 0.77.

In turn, SEEAPSTSGMGFHAPKIGSNGVEM [SDE2] registered a protein stability index (treatment: DMSO) of 4.92 ± 0.17 and a protein stability index (treatment: MLN4924 1 uM, 8 h) of 4.89 ± 0.1.

ASQPRGPALLFPATRGVPAKRLLD [TRIB1]: the protein stability index came to 3.72 ± 0.62 (treatment: DMSO) and 3.9 ± 0.36 (treatment: MLN4924 1 uM, 8 h).

As to CVDVVFYNPDLKKVVEAHKIVLCA [RHOBTB3], the protein stability index (treatment: DMSO) was 3.01 ± 1.1 and the protein stability index (treatment: MLN4924 1 uM, 8 h) amounted to 2.74 ± 0.81.

For QEHPRQQLATSSFLLFLLTGIVSV [MOSPD3], the protein stability index by setting is: (treatment: DMSO) 3.32 ± 0.49; (treatment: MLN4924 1 uM, 8 h) 2.83 ± 0.096.

Take VQGLMKEYLLSFPAGKTPVPAGEE [VPS39]: the protein stability index (treatment: DMSO) stood at 3.83 ± 0.39 and the protein stability index (treatment: MLN4924 1 uM, 8 h) was found to be 3.88 ± 0.093.

On to MGMNMNIGMSAAGMGLTGTMGMGM [CLINT1], for which the protein stability index turned out to be 2.48 ± 0.18 (treatment: DMSO) and 2.2 ± 0.28 (treatment: MLN4924 1 uM, 8 h).

On to LAARVIVNHRIYYKGHIPEKLETF [FEM1C], for which the protein stability index amounted to 2.82 ± 0.99 (treatment: DMSO) and 2.47 ± 0.52 (treatment: MLN4924 1 uM, 8 h).

On to CPVEYNNDTNSFTVDCEPSDLFRL [CDS2], for which the protein stability index runs as follows: (treatment: DMSO) 3.94 ± 0.21; (treatment: MLN4924 1 uM, 8 h) 4.03 ± 0.17.

On to GFAFITFENPADAKNAAKDMNGKS [RBMY1A1], for which the protein stability index runs as follows: (treatment: DMSO) 3.55 ± 0.46; (treatment: MLN4924 1 uM, 8 h) 3.68 ± 0.36.

Regarding YQVHDYLRSKLCSLYENDCIFDKF [PPP2R2B], the protein stability index worked out at 2.58 ± 0.71 (treatment: DMSO) and 2.27 ± 0.48 (treatment: MLN4924 1 uM, 8 h).

Take IQYNRRQLLILLQNCTDEGEREAI [POP5]: the protein stability index was determined as 2.74 ± 0.3 (treatment: DMSO) and 2.78 ± 0.51 (treatment: MLN4924 1 uM, 8 h).

For the sequence PVKASRSHQELHRELLMNHRRGLG [FAM107A], the protein stability index by setting is: (treatment: DMSO) 3.73 ± 0.27; (treatment: MLN4924 1 uM, 8 h) 3.95 ± 0.42.
